“And” between values parts separate entries of the source, which are not always exact repeats. Equal values may be shown once.
Target: T1, EhDrpA (endogenous) (Entamoeba histolytica (endogenous in …, UniProt C4LX84 1-682))
T1 construct: Entamoeba histolytica dynamin-related protein A (EhDrpA, earlier named EhDlp1), XP_649650; also called endogenous EhDrpA; native EhDrpA; source: endogenous, E. histolytica trophozoite whole cell lysate
T1 sequence (looked up): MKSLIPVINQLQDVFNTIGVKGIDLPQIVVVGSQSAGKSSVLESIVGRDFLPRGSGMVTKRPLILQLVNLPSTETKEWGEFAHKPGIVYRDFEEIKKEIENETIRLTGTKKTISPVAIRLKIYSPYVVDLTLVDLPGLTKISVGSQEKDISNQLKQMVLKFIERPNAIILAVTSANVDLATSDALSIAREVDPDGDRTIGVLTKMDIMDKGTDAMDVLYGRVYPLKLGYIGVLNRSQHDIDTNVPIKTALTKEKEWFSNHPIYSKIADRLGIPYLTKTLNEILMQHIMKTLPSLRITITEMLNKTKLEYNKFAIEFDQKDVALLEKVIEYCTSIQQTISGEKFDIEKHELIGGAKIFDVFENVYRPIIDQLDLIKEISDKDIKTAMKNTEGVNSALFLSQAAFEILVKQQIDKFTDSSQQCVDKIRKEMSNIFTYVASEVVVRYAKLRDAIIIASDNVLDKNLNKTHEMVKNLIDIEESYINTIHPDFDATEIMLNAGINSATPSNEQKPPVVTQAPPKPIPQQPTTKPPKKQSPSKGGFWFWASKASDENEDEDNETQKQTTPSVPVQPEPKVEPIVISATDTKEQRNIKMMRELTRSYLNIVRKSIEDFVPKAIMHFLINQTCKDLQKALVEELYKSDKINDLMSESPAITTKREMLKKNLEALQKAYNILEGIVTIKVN
Experiment: co-IP; trophozoites of E. histolytica HM-1:IMSS cl6 wild type; immunoprecipitation by anti-DrpA or anti-DrpB antibodies; quantitative immunoblot with recombinant His6-EhDRP-HA proteins as standards
Settings: partners not purified

B1: EhDrpB (endogenous) (natural protein, UniProt C4M3R5 1-663, looked up)
chain: MQRLIPVINSLQDVFTAAGLPNTLPLPQIVVVGSQSSGKSSVLEHVVGKDFLPRGSGIVTRRPLIVQCVRSNVAEDYGQFEHTGDRKFTDFGEIRNEITRETERTCPGRNVSSVPIRLRIYSSSVVDLTLVDLPGLVKVNINGQTAEMVKNLRDMVYEYASPSNALILAVTAGNIDIANSDALQVAKDVDPDGERTIGVLTKLDLEDKGTNSMDVLMGRVYPLKLGYIGVVNRSQQDINNGVDVKTSLRHEKEFFENHPVYCSIAERMGTEYMVNRLNVLLLQHIQKCLPGLKQQINQCYEKARSRYEDIKPDDENLLSLSLQQIMKFSGSFAAALNGTDTNIHTHEISGGAKIFSVFENNFRPTIDSQDILSGIKDVDILTAIKNASGTRPCLYVPQSAFENLISKQVRNFEGTCHNCVDNVYREMKVIVGKIAKDNIEKYDRFREALIQASTEVMNDYMTQTHKMVQDLIDIEADYINTSHPDFDTTKVLKEADEAMKTPQDGIDTIVTIDPNNTTNAQQYEAKKPVKSSFFAGQINKNQAKPQQQHVPKESITTSIRVDHTNQREMREINLIRNLCKDYLLIVRKSIKDLVPKAVIHFLVFKTRDSLQKELIKKLYNEALLQDLLAENPAIVNERKVVKQNLEALKKALDIINQVRDQCF
notes: Entamoeba histolytica dynamin-related protein B (EhDrpB), XP_651634; also called endogenous EhDrpB; native EhDrpB; source: endogenous, E. histolytica trophozoite whole cell lysate
With B1 the “stoichiometry N” value was 2 EhDrpB per EhDrpA and 3 EhDrpB per EhDrpA.

— PMC5647421, “Hetero-oligomer of dynamin-related proteins participates in the fission of highly divergent mitochondria from Entamoeba histolytica” (Scientific Reports, 2017)
